Data published in US7109015B2, “Removal of N-terminal methionine from proteins by engineered methionine aminopeptidase” (Academia Sinica, priority 2004, dated 2006).
Where two headings read alike, the source gives them in different places.

Tests used:
Met-tagged onconase = experiment: In vivo catalytic activity of MetAPs co-expressed with Met-tagged onconase in E. coli BL21(DE3); N-terminus by Edman degradation; format: cell-based; conditions: in vivo in E. coli
From the text: Residues Tyr168, Met206 and Gln233 in the putative substrate-binding site of E. coli MetAP were mutated by site-directed mutagenesis based on the crystal structure and amino acid sequence alignment of MetAPs (Ben-Bassat et al., 1987; Lowther et al., 1999; Walker et al., 1999). For the expression of secretory ribonucleases, the ribonuclease gene was cloned and expressed as described previously (Huang et al., 1998).
Most of the co-expressed target protein, e.g., onconase or RC-RNase L1, existed in insoluble cell lysate. They were denatured, renatured and purified as described previously (Liao et al., 2003). The purified ribonucleases were stored in 20 mM sodium phosphate, pH 7.0, for pyroglutamate formation at the N-terminus. Alternatively, the ribonuclease secreted into culture medium through pe1B system was concentrated and purified to electrophoretical homogeneity at a yield of 1˜5 mg per 1 liter of culture (Huang et al., 1998).

synthetic oligopeptides = format: biochemical; conditions: 4 mM oligopeptide, pH 7.5, 37° C.
Method: The oligopeptide substrates used in this experiment were synthesized on the 432A Synergy peptide synthesizer (Applied Biosystems, Foster, Calif., USA). The enzymatic activity of purified MetAP was assayed as described by Ben-Bassat et al., 1987. Briefly, the diluted MetAP enzyme in 10 μl was added to 90 μl of the substrate solution containing 4 mM oligopeptide, 0.1 M potassium phosphate buffer, pH 7.5 and 0.2 mM CoCl2, incubated at 37° C. for 10 min and stopped in boiling water for 2 min. After addition of 0.9 ml of color development mixture containing 0.2 mg of L-amino acid oxidase, 0.03 mg of horseradish peroxidase and 0.2 mg of o-dianisidine in 0.1 M Tris-HCl, pH 7.4, the mixtures were incubated for 10 min at 37° C., and the optical density at 440 nm was recorded. One unit of activity is defined as 1 μmol of amino acids produced per min under the assay conditions and the pure Met was used as standard. The N-terminal residues of the MetAP-treated oligopeptide were further verified by Edman degradation.

B1: MetAP-Q233G: E. coli MetAP with Gln233 replaced by Gly (protein, UniProt P0AE18 2-264, looked up, variant Q233G)
Methionine aminopeptidase: AISIKTPEDIEKMRVAGRLAAEVLEMIEPYVKPGVSTGELDRICNDYIVNEQHAVSACLGYHGYPKSVCISINEVVCHGIPDDAKLLKDGDIVNIDVTVIKDGFHGDTSKMFIVGKPTIMGERLCRITQESLYLALRMVKPGINLREIGAAIQKFVEAEGFSVVREYCGHGIGRGFHEEPQVLHYDSRETNVVLKPGMTFTIEPMVNAGKKEIRTMKDGWTVKTKDRSLSAGYEHTIVVTDNGCEILTLRKDDTIPAIISHDE
Met-tagged onconase; substrate MQD-Onc
  Catalytic activity (%): removal of N-terminal Met: 74%

B2: MetAP-M206T: E. coli MetAP with Met206 replaced by Thr (protein, UniProt P0AE18 2-264, looked up, variant M206T)
Methionine aminopeptidase: AISIKTPEDIEKMRVAGRLAAEVLEMIEPYVKPGVSTGELDRICNDYIVNEQHAVSACLGYHGYPKSVCISINEVVCHGIPDDAKLLKDGDIVNIDVTVIKDGFHGDTSKMFIVGKPTIMGERLCRITQESLYLALRMVKPGINLREIGAAIQKFVEAEGFSVVREYCGHGIGRGFHEEPQVLHYDSRETNVVLKPGMTFTIEPTVNAGKKEIRTMKDGWTVKTKDRSLSAQYEHTIVVTDNGCEILTLRKDDTIPAIISHDE
Met-tagged onconase; substrate MQD-Onc
  Catalytic activity (%): removal of N-terminal Met: 86%

B3: MetAP-*TT (protein)
chain: AISIKTPEDIEKMRVAGRLAAEVLEMIEPYVKPGVSTGELDRICNDYIVNEQHAVSACLGYHGYPKSVCISINEVVCHGIPDDAKLLKDGDIVNIDVTVIKDGFHGDTSKMFIVGKPTIMGERLCRITQESLYLALRMVKPGINLREIGAAIQKFVEAEGFSVVREYCGHGIGRGFHEEPQVLHYDSRETNVVLKPGMTFTIEPTVNAGKKEIRTMKDGWTVKTKDRSLSATYEHTIVVTDNGCEILTLRKDDTIPAIISHDE
Met-tagged onconase; substrate MQD-Onc
  Catalytic activity (%): removal of N-terminal Met: 93%
Synthetic oligopeptides; substrate MADY (SEQ ID NO:7)
  Specific activity (unit/mg): 0.38 ± 0.03 unit/mg
Synthetic oligopeptides; substrate MADYLT (SEQ ID NO:8)
  Specific activity (unit/mg): 0.12 ± 0.01 unit/mg
Synthetic oligopeptides; substrate MQDYLT (SEQ ID NO:9)
  Specific activity (unit/mg): 0.13 ± 0.01 unit/mg
Synthetic oligopeptides; substrate […] (SEQ ID NO:5)
  Specific activity (unit/mg): 1.00 ± 0.08 unit/mg
Synthetic oligopeptides; substrate […] (SEQ ID NO:6)
  Specific activity (unit/mg): 0.25 ± 0.01 unit/mg

B4: MetAP-Q233T: E. coli MetAP with Gln233 replaced by Thr (protein, UniProt P0AE18 2-264, looked up, variant Q233T)
Methionine aminopeptidase: AISIKTPEDIEKMRVAGRLAAEVLEMIEPYVKPGVSTGELDRICNDYIVNEQHAVSACLGYHGYPKSVCISINEVVCHGIPDDAKLLKDGDIVNIDVTVIKDGFHGDTSKMFIVGKPTIMGERLCRITQESLYLALRMVKPGINLREIGAAIQKFVEAEGFSVVREYCGHGIGRGFHEEPQVLHYDSRETNVVLKPGMTFTIEPMVNAGKKEIRTMKDGWTVKTKDRSLSATYEHTIVVTDNGCEILTLRKDDTIPAIISHDE
Met-tagged onconase; substrate MQD-Onc
  Catalytic activity (%): removal of N-terminal Met: 88%

B5: MetAP-*GG (protein)
chain: AISIKTPEDIEKMRVAGRLAAEVLEMIEPYVKPGVSTGELDRICNDYIVNEQHAVSACLGYHGYPKSVCISINEVVCHGIPDDAKLLKDGDIVNIDVTVIKDGFHGDTSKMFIVGKPTIMGERLCRITQESLYLALRMVKPGINLREIGAAIQKFVEAEGFSVVREYCGHGIGRGFHEEPQVLHYDSRETNVVLKPGMTFTIEPGVNAGKKEIRTMKDGWTVKTKDRSLSAGYEHTIVVTDNGCEILTLRKDDTIPAIISHDE
Met-tagged onconase; substrate MID-Onc
  Catalytic activity (%): removal of N-terminal Met: 5%
Met-tagged onconase; substrate MLD-Onc
  Catalytic activity (%): removal of N-terminal Met: 18%
Met-tagged onconase; substrate MQD-Onc
  Catalytic activity (%): removal of N-terminal Met: 96%
Synthetic oligopeptides; substrate MADY (SEQ ID NO:7)
  Specific activity (unit/mg): 0.51 ± 0.01 unit/mg
Synthetic oligopeptides; substrate MADYLT (SEQ ID NO:8)
  Specific activity (unit/mg): 0.29 ± 0.01 unit/mg
Synthetic oligopeptides; substrate MQDYLT (SEQ ID NO:9)
  Specific activity (unit/mg): 0.29 ± 0.02 unit/mg
Synthetic oligopeptides; substrate […] (SEQ ID NO:5)
  Specific activity (unit/mg): 3.28 ± 0.04 unit/mg
Synthetic oligopeptides; substrate […] (SEQ ID NO:6)
  Specific activity (unit/mg): 0.50 ± 0.02 unit/mg

B6: MetAP-M206G: E. coli MetAP with Met206 replaced by Gly (protein, UniProt P0AE18 2-264, looked up, variant M206G)
Methionine aminopeptidase: AISIKTPEDIEKMRVAGRLAAEVLEMIEPYVKPGVSTGELDRICNDYIVNEQHAVSACLGYHGYPKSVCISINEVVCHGIPDDAKLLKDGDIVNIDVTVIKDGFHGDTSKMFIVGKPTIMGERLCRITQESLYLALRMVKPGINLREIGAAIQKFVEAEGFSVVREYCGHGIGRGFHEEPQVLHYDSRETNVVLKPGMTFTIEPGVNAGKKEIRTMKDGWTVKTKDRSLSAQYEHTIVVTDNGCEILTLRKDDTIPAIISHDE
Met-tagged onconase; substrate MQD-Onc
  Catalytic activity (%): removal of N-terminal Met: 85%

B7: MetAP-M206V: E. coli MetAP with Met206 replaced by Val (protein, UniProt P0AE18 2-264, looked up, variant M206V)
Methionine aminopeptidase: AISIKTPEDIEKMRVAGRLAAEVLEMIEPYVKPGVSTGELDRICNDYIVNEQHAVSACLGYHGYPKSVCISINEVVCHGIPDDAKLLKDGDIVNIDVTVIKDGFHGDTSKMFIVGKPTIMGERLCRITQESLYLALRMVKPGINLREIGAAIQKFVEAEGFSVVREYCGHGIGRGFHEEPQVLHYDSRETNVVLKPGMTFTIEPVVNAGKKEIRTMKDGWTVKTKDRSLSAQYEHTIVVTDNGCEILTLRKDDTIPAIISHDE
Met-tagged onconase; substrate MQD-Onc
  Catalytic activity (%): removal of N-terminal Met: 61%
